The record followed here is patent US20180273587A1 (AILERON THERAPEUTICS, published 2018).

What all share (assay): Ki (Table 6); method not stated
For assay [1], the target named is T1, MCL-1 (UniProt Q07820 172-327, limits assumed).
T1 construct: Target of the Ki columns; also called Myeloid cell leukemia 1

Assay [2] deals with T2, BCL-XL (UniProt Q07817 1-209).
T2 construct: Target of the Ki columns

In assay [3] the target is T3, BCL-2 (UniProt P10415 1-217, limits assumed).
T3 construct: Target of the Ki columns
T3 sequence (P10415 1-217 limits assumed): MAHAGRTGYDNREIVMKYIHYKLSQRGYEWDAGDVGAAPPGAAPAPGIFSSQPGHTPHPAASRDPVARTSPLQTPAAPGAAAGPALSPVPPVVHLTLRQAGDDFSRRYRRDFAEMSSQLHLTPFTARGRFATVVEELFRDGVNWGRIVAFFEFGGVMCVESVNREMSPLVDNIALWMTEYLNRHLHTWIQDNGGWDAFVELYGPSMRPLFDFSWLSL

Positions of bridges follow the written chain, without caps; N, C: chain ends. Non-standard residues stand in square brackets, D forms with d. R8 = C=CCCCCCC[C@@](C)(N)C(=O)O; S5 = C=CCCC[C@](C)(N)C(=O)O

T1 sequence (Q07820 172-327 limits assumed): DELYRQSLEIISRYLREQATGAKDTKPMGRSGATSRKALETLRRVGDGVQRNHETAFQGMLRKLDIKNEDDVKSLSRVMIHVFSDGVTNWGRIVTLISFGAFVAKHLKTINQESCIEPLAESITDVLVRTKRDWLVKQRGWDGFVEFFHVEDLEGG
T2 sequence (Q07817 1-209): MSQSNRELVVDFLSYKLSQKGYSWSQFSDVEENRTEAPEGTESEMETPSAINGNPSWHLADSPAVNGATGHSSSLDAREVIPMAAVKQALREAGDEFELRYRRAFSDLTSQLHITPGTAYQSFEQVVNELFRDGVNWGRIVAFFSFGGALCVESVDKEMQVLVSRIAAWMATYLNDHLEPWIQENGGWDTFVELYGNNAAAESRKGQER

B1: Cross-linked peptide #3 (peptide)
peptide: Ac-IWIAAALR[R8]IGDEFN[S5]YYA-NH2
modifications: staple 9-16
SMILES: CC[C@H](C)[C@H](NC(C)=O)C(=O)N[C@@H](Cc1c[nH]c2ccccc12)C(=O)N[C@H](C(=O)N[C@@H](C)C(=O)N[C@@H](C)C(=O)N[C@@H](C)C(=O)N[C@@H](CC(C)C)C(=O)N[C@@H](CCCNC(=N)N)C(=O)N[C@]1(C)CCCCCCC=CCCC[C@@](C)(C(=O)N[C@@H](Cc2ccc(O)cc2)C(=O)N[C@@H](Cc2ccc(O)cc2)C(=O)N[C@@H](C)C(N)=O)NC(=O)[C@H](CC(N)=O)NC(=O)[C@H](Cc2ccccc2)NC(=O)[C@H](CCC(=O)O)NC(=O)[C@H](CC(=O)O)NC(=O)CNC(=O)[C@H]([C@@H](C)CC)NC1=O)[C@@H](C)CC
Take B1: the Ki turned out to be 1 nM in assay [1], 1 nM in assay [2] and 6 nM in assay [3].

B2: Cross-linked peptide #10 (peptide)
peptide: Ac-IWIAQALR[R8]AGDQFN[S5]YYA-NH2
modifications: staple 9-16
SMILES: CC[C@H](C)[C@H](NC(C)=O)C(=O)N[C@@H](Cc1c[nH]c2ccccc12)C(=O)N[C@H](C(=O)N[C@@H](C)C(=O)N[C@@H](CCC(N)=O)C(=O)N[C@@H](C)C(=O)N[C@@H](CC(C)C)C(=O)N[C@@H](CCCNC(=N)N)C(=O)N[C@]1(C)CCCCCCC=CCCC[C@@](C)(C(=O)N[C@@H](Cc2ccc(O)cc2)C(=O)N[C@@H](Cc2ccc(O)cc2)C(=O)N[C@@H](C)C(N)=O)NC(=O)[C@H](CC(N)=O)NC(=O)[C@H](Cc2ccccc2)NC(=O)[C@H](CCC(N)=O)NC(=O)[C@H](CC(=O)O)NC(=O)CNC(=O)[C@H](C)NC1=O)[C@@H](C)CC
Regarding B2, the inhibition constant (Ki) in assay [1] amounted to 122 nM; in assay [2] it was 1.9 nM; in assay [3], 4.8 nM.

B3: Cross-linked peptide #7 (peptide)
peptide: Ac-IWIAQALR[R8]IGDAAN[S5]YYA-NH2
modifications: staple 9-16
SMILES: CC[C@H](C)[C@H](NC(C)=O)C(=O)N[C@@H](Cc1c[nH]c2ccccc12)C(=O)N[C@H](C(=O)N[C@@H](C)C(=O)N[C@@H](CCC(N)=O)C(=O)N[C@@H](C)C(=O)N[C@@H](CC(C)C)C(=O)N[C@@H](CCCNC(=N)N)C(=O)N[C@]1(C)CCCCCCC=CCCC[C@@](C)(C(=O)N[C@@H](Cc2ccc(O)cc2)C(=O)N[C@@H](Cc2ccc(O)cc2)C(=O)N[C@@H](C)C(N)=O)NC(=O)[C@H](CC(N)=O)NC(=O)[C@H](C)NC(=O)[C@H](C)NC(=O)[C@H](CC(=O)O)NC(=O)CNC(=O)[C@H]([C@@H](C)CC)NC1=O)[C@@H](C)CC
For B3, the inhibition constant (Ki) amounted to 7.5 nM in assay [1], 402 nM in assay [2] and 140 nM in assay [3].

B4: Cross-linked peptide #11 (peptide)
peptide: Ac-IWIAQALA[R8]IGDAFN[S5]YYA-NH2
modifications: staple 9-16
SMILES: CC[C@H](C)[C@H](NC(C)=O)C(=O)N[C@@H](Cc1c[nH]c2ccccc12)C(=O)N[C@H](C(=O)N[C@@H](C)C(=O)N[C@@H](CCC(N)=O)C(=O)N[C@@H](C)C(=O)N[C@@H](CC(C)C)C(=O)N[C@@H](C)C(=O)N[C@]1(C)CCCCCCC=CCCC[C@@](C)(C(=O)N[C@@H](Cc2ccc(O)cc2)C(=O)N[C@@H](Cc2ccc(O)cc2)C(=O)N[C@@H](C)C(N)=O)NC(=O)[C@H](CC(N)=O)NC(=O)[C@H](Cc2ccccc2)NC(=O)[C@H](C)NC(=O)[C@H](CC(=O)O)NC(=O)CNC(=O)[C@H]([C@@H](C)CC)NC1=O)[C@@H](C)CC
B4: the Ki stood at 73.8 nM in assay [1], 386 nM in assay [2] and 1090 nM in assay [3].

B5: Cross-linked peptide #4 (peptide)
peptide: Ac-IWIAAALR[R8]IGDQFN[S5]YYA-NH2
modifications: staple 9-16
SMILES: CC[C@H](C)[C@H](NC(C)=O)C(=O)N[C@@H](Cc1c[nH]c2ccccc12)C(=O)N[C@H](C(=O)N[C@@H](C)C(=O)N[C@@H](C)C(=O)N[C@@H](C)C(=O)N[C@@H](CC(C)C)C(=O)N[C@@H](CCCNC(=N)N)C(=O)N[C@]1(C)CCCCCCC=CCCC[C@@](C)(C(=O)N[C@@H](Cc2ccc(O)cc2)C(=O)N[C@@H](Cc2ccc(O)cc2)C(=O)N[C@@H](C)C(N)=O)NC(=O)[C@H](CC(N)=O)NC(=O)[C@H](Cc2ccccc2)NC(=O)[C@H](CCC(N)=O)NC(=O)[C@H](CC(=O)O)NC(=O)CNC(=O)[C@H]([C@@H](C)CC)NC1=O)[C@@H](C)CC
On to B5, for which the Ki in assay [1] was 6 nM; in assay [2], 4 nM; in assay [3], 22 nM.

B6: Cross-linked peptide #9 (peptide)
peptide: Ac-IWIAQALR[R8]IADQFN[S5]YYA-NH2
modifications: staple 9-16
SMILES: CC[C@H](C)[C@H](NC(C)=O)C(=O)N[C@@H](Cc1c[nH]c2ccccc12)C(=O)N[C@H](C(=O)N[C@@H](C)C(=O)N[C@@H](CCC(N)=O)C(=O)N[C@@H](C)C(=O)N[C@@H](CC(C)C)C(=O)N[C@@H](CCCNC(=N)N)C(=O)N[C@]1(C)CCCCCCC=CCCC[C@@](C)(C(=O)N[C@@H](Cc2ccc(O)cc2)C(=O)N[C@@H](Cc2ccc(O)cc2)C(=O)N[C@@H](C)C(N)=O)NC(=O)[C@H](CC(N)=O)NC(=O)[C@H](Cc2ccccc2)NC(=O)[C@H](CCC(N)=O)NC(=O)[C@H](CC(=O)O)NC(=O)[C@H](C)NC(=O)[C@H]([C@@H](C)CC)NC1=O)[C@@H](C)CC
For B6, the Ki came to 116 nM in assay [1], 7.7 nM in assay [2] and 25.6 nM in assay [3].

B7: Cross-linked peptide #12 (peptide)
peptide: Ac-IWIAQALR[R8]IGNAFN[S5]YYA-NH2
modifications: staple 9-16
SMILES: CC[C@H](C)[C@H](NC(C)=O)C(=O)N[C@@H](Cc1c[nH]c2ccccc12)C(=O)N[C@H](C(=O)N[C@@H](C)C(=O)N[C@@H](CCC(N)=O)C(=O)N[C@@H](C)C(=O)N[C@@H](CC(C)C)C(=O)N[C@@H](CCCNC(=N)N)C(=O)N[C@]1(C)CCCCCCC=CCCC[C@@](C)(C(=O)N[C@@H](Cc2ccc(O)cc2)C(=O)N[C@@H](Cc2ccc(O)cc2)C(=O)N[C@@H](C)C(N)=O)NC(=O)[C@H](CC(N)=O)NC(=O)[C@H](Cc2ccccc2)NC(=O)[C@H](C)NC(=O)[C@H](CC(N)=O)NC(=O)CNC(=O)[C@H]([C@@H](C)CC)NC1=O)[C@@H](C)CC
Take B7: the Ki in assay [1] is 195 nM; in assay [2], 416 nM; in assay [3] it was 405 nM.

B8: Cross-linked peptide #8 (peptide)
peptide: Ac-IWIAQALR[R8]IGDQAN[S5]YYA-NH2
modifications: staple 9-16
SMILES: CC[C@H](C)[C@H](NC(C)=O)C(=O)N[C@@H](Cc1c[nH]c2ccccc12)C(=O)N[C@H](C(=O)N[C@@H](C)C(=O)N[C@@H](CCC(N)=O)C(=O)N[C@@H](C)C(=O)N[C@@H](CC(C)C)C(=O)N[C@@H](CCCNC(=N)N)C(=O)N[C@]1(C)CCCCCCC=CCCC[C@@](C)(C(=O)N[C@@H](Cc2ccc(O)cc2)C(=O)N[C@@H](Cc2ccc(O)cc2)C(=O)N[C@@H](C)C(N)=O)NC(=O)[C@H](CC(N)=O)NC(=O)[C@H](C)NC(=O)[C@H](CCC(N)=O)NC(=O)[C@H](CC(=O)O)NC(=O)CNC(=O)[C@H]([C@@H](C)CC)NC1=O)[C@@H](C)CC
For B8, the Ki in assay [1] came out at 1.4 nM; in assay [2], 24.9 nM; in assay [3], 43.9 nM.

Broadly, the Ki is the equilibrium dissociation constant of an inhibitor or competing ligand from its target. Low readings indicate higher affinity, high ones lower affinity.
